The text below walks through data of patent publication US20100092974A1, “METHODS FOR SCREENING FOR MODULATORS OF CCRL2” (The Board of Trustees of the Leland Stanford Junior …, priority 2008, published 2010).

One assay deals with T1, mCRTH2 (Mus musculus, UniProt Q9Z2J6).
T1 construct: The coding regions of mCCRL2, huCCRL2, mCRTH2, and huCCR10 were amplified from genomic DNA; expressed in transfected cells
T1 sequence (Q9Z2J6 1-382): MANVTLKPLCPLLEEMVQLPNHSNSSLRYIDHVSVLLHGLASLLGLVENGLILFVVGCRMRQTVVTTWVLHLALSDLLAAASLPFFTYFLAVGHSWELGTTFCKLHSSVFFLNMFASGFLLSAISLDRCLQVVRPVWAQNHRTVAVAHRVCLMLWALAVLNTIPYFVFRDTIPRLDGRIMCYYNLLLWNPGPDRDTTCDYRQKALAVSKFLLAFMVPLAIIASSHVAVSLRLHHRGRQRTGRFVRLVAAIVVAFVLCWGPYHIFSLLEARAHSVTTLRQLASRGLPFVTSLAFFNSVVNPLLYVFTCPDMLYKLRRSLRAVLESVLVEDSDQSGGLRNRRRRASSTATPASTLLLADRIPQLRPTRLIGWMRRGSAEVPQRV
The experiment in a line: radioligand binding to untransfected or mCRTH2-HA-transfected cells. The conditions noted are these: data not shown.

In assay [1] the test system is mouse peritoneal mast cells. Put plainly: intracellular calcium mobilization, freshly isolated peritoneal mast cells. The format is cell-based. The conditions noted are these: 1000 nM chemerin, 100 nM ATP. As for the experimental part:
Chemoattractant-stimulated Ca^2+-mobilization was performed following Alliance for Cell Signaling protocol ID PP00000210. Cells (3×10^6/mL) were loaded with 4 μM Fluo4-AM and 0.16% Pluronic acid F-127 (Molecular Probes) in modified Iscove's medium (Iscove's medium with 1% heat inactivated bovine calf serum and 2 mM L-glutamine, Invitrogen) for 30 minutes at 37° C. The samples were mixed every 10 minutes during loading, washed once, resuspended at up to 2×10^6/mL in the same buffer, and allowed to rest in the dark for 30 minutes at room temperature. Chemoattractant-stimulated change in Ca^2+-sensitive fluorescence of Fluo-4 was measured over real-time with a FACsScan flow cytometer and CellQuest software (BD Biosciences) at room temperature under constant stirring (500 rpm). Fluorescent data were acquired continuously up to 1024 seconds at 1-second intervals. The samples were analyzed for 45 seconds to establish basal state, removed from the nozzle to add the stimuli, and then returned to the nozzle. Mean channel fluorescence over time was analyzed with FlowJo (TreeStar, Ashland, Oreg., USA) software. […] 500 μl of these chemerin-loaded cells were added to mCMKLR1/L1.2 cells loaded with Fluo4-AM, and calcium mobilization was evaluated.
In general terms: Calcium flux is commonly read through the fluorescence of an indicator in the cells.

Assay [2] addresses T2, mCCRL2 (Mus musculus, UniProt O35457).
T2 construct: The coding regions of mCCRL2, huCCRL2, mCRTH2, and huCCR10 were amplified from genomic DNA; expressed in transfected cells
T2 sequence (O35457 1-360): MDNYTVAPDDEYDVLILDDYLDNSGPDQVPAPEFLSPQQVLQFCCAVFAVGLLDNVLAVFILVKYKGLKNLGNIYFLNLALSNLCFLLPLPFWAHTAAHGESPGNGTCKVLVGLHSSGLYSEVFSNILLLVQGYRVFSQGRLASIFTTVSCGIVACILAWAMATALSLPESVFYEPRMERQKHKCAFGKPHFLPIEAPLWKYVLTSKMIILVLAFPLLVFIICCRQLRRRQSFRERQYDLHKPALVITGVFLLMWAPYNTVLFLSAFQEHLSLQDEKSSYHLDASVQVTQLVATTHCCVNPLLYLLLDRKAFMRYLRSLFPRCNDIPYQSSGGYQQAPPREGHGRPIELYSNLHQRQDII
Put plainly: receptor internalization assay, mCCRL2-HA L1.2. The format is cell-based. The conditions noted are these: 100 nM chemerin, 15 min. As for the experimental part: The cells were then washed with 200 μl PBS and stained with mouse anti-HA (Covance, Inc) or mIgG1 isotype control, followed by staining with secondary anti-mouse IgG1 PE, fixed, and analyzed by flow cytometry.

The target of another assay is T3, huCCRL2 (Homo sapiens, UniProt O00421).
T3 construct: The coding regions of mCCRL2, huCCRL2, mCRTH2, and huCCR10 were amplified from genomic DNA; expressed in transfected cells
T3 sequence (O00421 1-344): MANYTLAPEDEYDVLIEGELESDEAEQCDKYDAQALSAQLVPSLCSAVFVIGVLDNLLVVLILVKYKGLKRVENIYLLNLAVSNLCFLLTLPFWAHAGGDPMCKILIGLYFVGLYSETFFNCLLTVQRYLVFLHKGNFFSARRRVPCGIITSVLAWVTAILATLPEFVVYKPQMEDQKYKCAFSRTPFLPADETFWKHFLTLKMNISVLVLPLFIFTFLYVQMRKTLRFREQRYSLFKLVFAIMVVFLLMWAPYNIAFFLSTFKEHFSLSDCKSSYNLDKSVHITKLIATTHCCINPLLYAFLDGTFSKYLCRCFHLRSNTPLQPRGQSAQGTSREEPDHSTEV
The experiment in a line: immunofluorescence-based chemerin-binding assay, huCCRL2-HA L1.2. The conditions noted are these: read-out: EC50, untagged chemerin vs His8-tagged chemerin binding; 10 nM His8-tagged serum form chemerin, 30 min on ice, anti-His6 PE.

Assay [3] addresses T2, mCCRL2. The experiment in a line: in vitro transwell chemotaxis, mCCRL2/L1.2 transfectants. The format is cell-based. Here is the method: For migration experiments using cell lines, 2.5×10^5 cells/100 μl chemotaxis media (RPMI+10% fetal calf serum) were added to the top wells of 5-um pore transwell inserts (Costar, Corning, N.Y., USA), and test samples in 600 μl media were added to the bottom wells. After incubating the transwell plates for 1.5 hours at 37° C., the bottom wells were harvested and flow cytometry was used to assess migration. For primary cell chemotaxis, 1×10^6 cells/100 μl were added to the top well, and, following a 2 hour incubation at 37° C., polystyrene beads (15.0 μm diameter, Polysciences, Warrington, Pa., USA) were added to each well to facilitate normalization of the cell count. The cells were then stained for c-kit, F4/80, and/or CD11b expression and analyzed by flow cytometry. A ratio was generated and percent input migration was calculated.

Consider “chemerin: protein ligand for signaling receptor CMKLR1; serum form human chemerin expressed in baculovirus-infected insect cells, His8-tag removed”, for which the radiolabeled chemerin binding entry with mCRTH2 was “no binding was detected”. In addition, in assay [1], the intracellular calcium mobilization result is “did not trigger”. In addition, the ligand-induced receptor internalization entry with mCCRL2 [2] is “failed to internalize”. Moreover, the concentration giving a half-maximal response (EC50) (as a rule, the concentration giving half of the maximal effect) in the assay with huCCRL2 worked out at 7 nM. Further, the “synergy of CCL2 and chemerin in transwell migration” value with mCCRL2 [3] (CCL2 with chemerin) was “did not synergize”. The transwell migration result with mCCRL2 [3] (range of doses, CXCL12 and CCL19 act via endogenous CXCR4 and CCR7) is “neither human nor mouse CCRL2-HA/L1.2 transfectants migrated”.
